Source: FireProtDB (doi:10.1021/bi972394l)
Several values for one entry are separate records, joined by “and”; a condition that tells them apart may be missing. Equal values may be shown once.

B1: Superoxide dismutase [Mn], mitochondrial, P04179 (parent)
chain: MLSRAVCGTSRQLAPVLGYLGSRQKHSLPDLPYDYGALEPHINAQIMQLHHSKHHAAYVNNLNVTEEKYQEALAKGDVTAQIALQPALKFNGGGHINHSIFWTNLSPNGGGEPKGELLEAIKRDFGSFDKFKEKLTAASVGVQGSGWGWLGFNKERGHLQIAACPNQDPLQGTTGLIPLLGIDVWEHAYYLQYKNVRPDYLKAIWNVINWENVTERYMACKK

Variants of: B1
Settings: Homo sapiens; pH 7.8; 88.9 °C; Thermal; DSC; potassium phosphate 2 mM; transition: 2; reversible: Yes; structure 1N0J; whole UniProt chain shown
For MLSRAVCGTSRQLAPVLGYLGSRQKHSLPDLPYDYGALEPHINAQIMQLHHSKHHAAFVNNLNVTEEKYQEALAKGDVTAQIALQPALKFNGGGHINHSIFWTNLSPNGGGEPKGELLEAIKRDFGSFDKFKEKLTAASVGVQGSGWGWLGFNKERGHLQIAACPNQDPLQGTTGLIPLLGIDVWEHAYYLQYKNVRPDYLKAIWNVINWENVTERYMACKK [Y58F], the “ddG of mutation (higher = less stable)” value was -3.1 kcal/mol.

Same assay, conditions: Homo sapiens; pH 7.8; Thermal; DSC; potassium phosphate 2 mM; transition: 2; reversible: Yes; structure 1N0J; whole UniProt chain shown
For MLSRAVCGTSRQLAPVLGYLGSRQKHSLPDLPYDYGALEPHINAQIMQLHHSKHHAAFVNNLNVTEEKYQEALAKGDVTAQIALQPALKFNGGGHINHSIFWTNLSPNGGGEPKGELLEAIKRDFGSFDKFKEKLTAASVGVQGSGWGWLGFNKERGHLQIAACPNQDPLQGTTGLIPLLGIDVWEHAYYLQYKNVRPDYLKAIWNVINWENVTERYMACKK [Y58F], the “unfolding enthalpy (calorimetric)” value was 351 kcal/mol and 197 kcal/mol.
